Measurements: patent US11497796B2, “Agents directed against a cis RGMa/neogenin interaction or lipid rafts and use of the same in methods of treatment” (UNIVERSITY HEALTH NETWORK, priority 2013, dated 2022)

Tests used:
retinal cells = experiment: Ocular ischemia by ligation of the main optic artery, cell survival; format: in vivo, rat; settings: injection into the eye after ligation
Protocol: (A,B,C) Schematic representation of the experiments performed on the eye. A) the main artery was ligated to stop blood flow for 15 min. B) RGMa was injected into the eye vitreous just after ligation. C) 2 weeks after ligation, retrograde labeling was performed to assess cell survival. D) Representation of the retinal areas used for quantification. E) Quantification of cell survival performed on 8 rats for each condition.
To extend this study, whether RGMa injection into the eye affected cell survival after ligation of the main optic artery to induce ocular ischemia was tested.

retinal whole mounts = experiment: Oxygen Glucose Deprivation (OGD) in retinal whole mounts, PI staining; format: cell-based; settings: added to the medium, OGD 1 hour, 24 hours
Protocol: Specifically, retinal whole mounts were subjected to OGD for 1 hour. After ischemia, whole mounts were incubated for 24 hours and dead cells were identified using propidium iodide (PI) staining.
To determine whether Neogenin required lipid raft association to induce cell death, OGD was performed on retinal whole mounts in the presence of 4Ig, which as described above, prevented Neogenin localization into lipid rafts.

B1: RGMa: Repulsive Guidance Molecule A added to the medium or injected into the eye (protein)
chain: PHLRTFTDTFQTCKVQGAWPLIDNNYLNVQVTNTPVLPGSSATATSKLTIIFKSFQECVEQKVYQAEMDELPAAFADGSKNGGDKHGANSLKITEKVSGQHIEIQAKYIGTTIVVRQVGRYLTFAVRMPEEVVNAVEDRDSQGLYLCLRGCPLNQQIDFQTFRLAQAAEGRARRKGPSLPAPPEAFTYESATAKCREKLPVEDLYFQSCVFDLLTTGDVNFMLAAYYAFEDVKMLHSNKDKLHLYERTRALAPGN
enhancement of survival compared to controls (retinal cells): up to 2 times | cell survival after OGD (retinal whole mounts): promoted cell survival
